Measured values from patent publication US20050244862A1.

Tests used:
Test in all cases: cell-based or functional assay
[1] = target: NK1 tachykinin receptor (UniProt P25103)
[2] = target: T1, NK3 tachykinin receptor (UniProt P29371)
T1 sequence (looked up): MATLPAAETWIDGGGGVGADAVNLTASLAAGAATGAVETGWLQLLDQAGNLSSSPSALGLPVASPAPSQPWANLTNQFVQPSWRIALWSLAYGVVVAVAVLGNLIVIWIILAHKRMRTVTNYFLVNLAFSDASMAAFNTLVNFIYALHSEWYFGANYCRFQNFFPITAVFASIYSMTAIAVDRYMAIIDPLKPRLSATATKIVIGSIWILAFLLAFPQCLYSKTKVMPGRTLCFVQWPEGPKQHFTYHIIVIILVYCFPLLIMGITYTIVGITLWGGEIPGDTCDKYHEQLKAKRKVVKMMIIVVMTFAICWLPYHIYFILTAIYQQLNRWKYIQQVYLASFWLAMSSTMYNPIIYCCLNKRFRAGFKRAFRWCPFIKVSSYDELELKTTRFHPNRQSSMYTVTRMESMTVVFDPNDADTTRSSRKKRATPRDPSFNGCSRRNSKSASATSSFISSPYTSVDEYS

[3] = target: Insulin receptor
[4] = target: Gq-o5 chimeric G-protein
[5] = target: Gq-i5 chimeric G-protein
[6] = target: NK2 tachykinin receptor (UniProt P21452)
NK2 tachykinin receptor, sequence (P21452 whole entry): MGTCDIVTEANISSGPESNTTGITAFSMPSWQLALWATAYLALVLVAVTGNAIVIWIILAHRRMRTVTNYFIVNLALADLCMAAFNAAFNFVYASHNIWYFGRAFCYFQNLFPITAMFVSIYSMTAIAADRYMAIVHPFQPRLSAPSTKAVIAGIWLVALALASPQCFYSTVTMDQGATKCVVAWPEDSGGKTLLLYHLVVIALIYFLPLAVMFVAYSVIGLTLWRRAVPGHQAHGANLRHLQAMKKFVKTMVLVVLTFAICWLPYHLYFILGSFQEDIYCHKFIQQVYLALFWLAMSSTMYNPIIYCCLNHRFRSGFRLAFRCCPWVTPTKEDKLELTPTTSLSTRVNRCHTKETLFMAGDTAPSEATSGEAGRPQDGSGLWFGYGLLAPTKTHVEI

m4 muscarinic receptor, sequence (P08173 whole entry): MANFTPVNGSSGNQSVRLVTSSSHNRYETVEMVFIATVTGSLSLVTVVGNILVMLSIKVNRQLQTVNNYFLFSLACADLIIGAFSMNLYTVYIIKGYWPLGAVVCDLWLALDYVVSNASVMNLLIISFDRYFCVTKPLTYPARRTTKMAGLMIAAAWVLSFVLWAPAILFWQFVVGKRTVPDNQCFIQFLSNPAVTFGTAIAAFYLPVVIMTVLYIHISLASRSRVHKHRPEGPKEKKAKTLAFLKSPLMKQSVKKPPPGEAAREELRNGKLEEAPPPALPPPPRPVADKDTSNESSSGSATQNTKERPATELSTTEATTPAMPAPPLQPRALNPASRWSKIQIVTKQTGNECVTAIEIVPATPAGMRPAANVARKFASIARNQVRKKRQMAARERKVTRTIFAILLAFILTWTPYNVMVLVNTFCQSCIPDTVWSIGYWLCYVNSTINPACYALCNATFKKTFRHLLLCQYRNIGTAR
NK1 tachykinin receptor, sequence (P25103 whole entry): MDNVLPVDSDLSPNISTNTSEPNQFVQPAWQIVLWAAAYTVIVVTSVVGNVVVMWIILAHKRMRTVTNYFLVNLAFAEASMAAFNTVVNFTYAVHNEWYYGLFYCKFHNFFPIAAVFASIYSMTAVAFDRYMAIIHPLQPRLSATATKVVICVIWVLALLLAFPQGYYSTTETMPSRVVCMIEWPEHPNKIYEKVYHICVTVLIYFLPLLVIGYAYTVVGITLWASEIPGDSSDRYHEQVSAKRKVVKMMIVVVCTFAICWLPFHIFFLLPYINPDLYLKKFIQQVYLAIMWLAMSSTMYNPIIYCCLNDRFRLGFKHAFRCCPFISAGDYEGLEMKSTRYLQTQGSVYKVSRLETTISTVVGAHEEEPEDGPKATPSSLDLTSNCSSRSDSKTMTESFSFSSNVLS

## neurokinin A (from UniProt P20366 98-107) (peptide)
[1]
  EC50, amplification assay (β-galactosidase), Single Receptor Format: 14 nM
[2]
  EC50, amplification assay (β-galactosidase), Single Receptor Format: 11 nM

## Insulin (ligand)
[3]
  EC50, amplification assay (β-galactosidase), Single Receptor Format: 0.08 nM

## m4 muscarinic receptor (from UniProt P08173 1-479)
[4]
  ED50 of carbachol for the β-galactosidase response of cells co-expressing m4 and Gq-o5: 32 nM
[5]
  ED50 of carbachol for the β-galactosidase response of cells co-expressing m4 and Gq-i5: 37 nM

## substance P (from UniProt P20366 58-68) (peptide)
[2]
  EC50, amplification assay (β-galactosidase), Single Receptor Format: 164 nM
[6]
  EC50, amplification assay (β-galactosidase), Single Receptor Format: 65 nM
